Values quoted from earlier work in PMC3721222.
Like-named read-outs stand apart in the source and are kept apart here. Values belong to the substance of their own block, whether it stands above or below them.

Experiments:
Trypsin (Bos taurus) [1] = molecular target: Trypsin (Bos taurus) (UniProt P00760)
[2] = molecular target: Chymotrypsin (Bos taurus) (UniProt P00766)
Trypsin (Bos taurus) [3] = molecular target: Trypsin (Bos taurus) (UniProt P00760); remark: listed apart in the source
[4] = molecular target: Neutrophil elastase (Homo sapiens) (UniProt P08246)
Trypsin (Bos taurus) [5] = molecular target: Trypsin (Bos taurus) (UniProt P00760); remark: listed apart in the source
Plasmin (Homo sapiens) [6] = molecular target: Plasmin (Homo sapiens) (UniProt P00747)
Sequence of UniProt P00747 (P00747 581-810): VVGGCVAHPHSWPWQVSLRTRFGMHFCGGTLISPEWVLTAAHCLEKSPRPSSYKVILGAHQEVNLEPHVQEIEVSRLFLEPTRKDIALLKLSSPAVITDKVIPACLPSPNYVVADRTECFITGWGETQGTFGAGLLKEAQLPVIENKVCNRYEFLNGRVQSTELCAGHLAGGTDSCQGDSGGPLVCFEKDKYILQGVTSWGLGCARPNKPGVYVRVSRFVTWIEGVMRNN

[7] = molecular target: Chymotrypsin (Bos taurus) (UniProt P00766); remark: listed apart in the source
[8] = molecular target: Chymotrypsin (Bos taurus) (UniProt P00766); remark: listed apart in the source
Plasmin (Homo sapiens) [9] = molecular target: Plasmin (Homo sapiens) (UniProt P00747); remark: listed apart in the source
Plasmin (Homo sapiens) [10] = molecular target: Plasmin (Homo sapiens) (UniProt P00747); remark: listed apart in the source
[11] = molecular target: Chymotrypsin (Bos taurus) (UniProt P00766); remark: listed apart in the source
Trypsin (Bos taurus) [12] = molecular target: Trypsin (Bos taurus) (UniProt P00760); remark: listed apart in the source
Trypsin (Bos taurus) [13] = molecular target: Trypsin (Bos taurus) (UniProt P00760); remark: listed apart in the source
[14] = molecular target: Chymotrypsin (Bos taurus) (UniProt P00766); remark: listed apart in the source
Trypsin (Bos taurus) [15] = molecular target: Trypsin (Bos taurus) (UniProt P00760); remark: listed apart in the source
[16] = molecular target: Chymotrypsin (Bos taurus) (UniProt P00766); remark: listed apart in the source
Trypsin (Bos taurus) [17] = molecular target: Trypsin (Bos taurus) (UniProt P00760); remark: listed apart in the source
[18] = molecular target: Chymotrypsin (Bos taurus) (UniProt P00766); remark: listed apart in the source
[19] = molecular target: Pancreatic elastase (Sus scrofa) (UniProt P00772)
Sequence of UniProt P00772 (P00772 27-266): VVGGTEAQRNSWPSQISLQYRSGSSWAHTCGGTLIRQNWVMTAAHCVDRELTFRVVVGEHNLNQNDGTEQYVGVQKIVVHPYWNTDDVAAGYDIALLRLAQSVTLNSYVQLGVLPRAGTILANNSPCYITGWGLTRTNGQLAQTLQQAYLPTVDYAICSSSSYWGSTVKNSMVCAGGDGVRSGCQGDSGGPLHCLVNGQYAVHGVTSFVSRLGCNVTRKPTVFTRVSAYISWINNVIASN

[20] = molecular target: Leukocyte elastase (Homo sapiens) (UniProt P08246)
Cathepsin B = Cathepsin B (UniProt P07858)
Cathepsin L = Cathepsin L (UniProt P07711)
Sequence of UniProt P07711 (P07711 114-288, chain 1 of 2): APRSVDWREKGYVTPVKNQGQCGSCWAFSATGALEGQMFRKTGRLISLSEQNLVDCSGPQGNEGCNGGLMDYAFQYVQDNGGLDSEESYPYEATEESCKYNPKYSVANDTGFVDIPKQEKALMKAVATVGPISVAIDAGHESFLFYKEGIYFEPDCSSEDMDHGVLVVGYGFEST
Sequence of UniProt P07711 (P07711 292-333, chain 2 of 2): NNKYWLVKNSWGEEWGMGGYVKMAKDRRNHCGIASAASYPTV

Papain (Carica papaya) [21] = molecular target: Papain (Carica papaya) (UniProt P00784)
Sequence of UniProt P00784 (P00784 134-345): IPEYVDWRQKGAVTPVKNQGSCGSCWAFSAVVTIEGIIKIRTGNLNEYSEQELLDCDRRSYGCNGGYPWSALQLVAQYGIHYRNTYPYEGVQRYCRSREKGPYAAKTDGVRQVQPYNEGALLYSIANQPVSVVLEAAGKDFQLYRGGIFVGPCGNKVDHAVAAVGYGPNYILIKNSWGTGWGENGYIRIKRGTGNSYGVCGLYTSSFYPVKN

Papain (Carica papaya) [22] = molecular target: Papain (Carica papaya) (UniProt P00784); remark: listed apart in the source
Cathepsin D = Cathepsin D (UniProt P07339)
Sequence of UniProt P07339 (P07339 65-412): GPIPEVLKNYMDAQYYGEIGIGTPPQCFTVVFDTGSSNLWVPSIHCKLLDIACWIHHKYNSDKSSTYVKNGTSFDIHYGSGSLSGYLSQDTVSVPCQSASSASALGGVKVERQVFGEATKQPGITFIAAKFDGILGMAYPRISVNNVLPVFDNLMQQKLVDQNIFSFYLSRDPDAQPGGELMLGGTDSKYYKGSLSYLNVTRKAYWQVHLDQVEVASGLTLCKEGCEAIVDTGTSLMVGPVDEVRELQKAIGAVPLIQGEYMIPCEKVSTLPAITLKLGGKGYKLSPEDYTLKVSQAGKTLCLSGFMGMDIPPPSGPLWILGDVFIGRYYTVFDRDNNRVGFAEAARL

Trypsin (Bos taurus) [23] = molecular target: Trypsin (Bos taurus) (UniProt P00760); remark: listed apart in the source
Trypsin (Bos taurus) [24] = molecular target: Trypsin (Bos taurus) (UniProt P00760); remark: listed apart in the source
Trypsin (Bos taurus) [25] = molecular target: Trypsin (Bos taurus) (UniProt P00760); remark: listed apart in the source
Trypsin (Bos taurus) [26] = molecular target: Trypsin (Bos taurus) (UniProt P00760); remark: listed apart in the source
[27] = molecular target: Chymotrypsin (Bos taurus) (UniProt P00766); remark: listed apart in the source
Trypsin (Bos taurus) [28] = molecular target: Trypsin (Bos taurus) (UniProt P00760); remark: listed apart in the source
[29] = molecular target: Chymotrypsin (Bos taurus) (UniProt P00766); remark: listed apart in the source
Trypsin (Bos taurus) [30] = molecular target: Trypsin (Bos taurus) (UniProt P00760); remark: listed apart in the source
Metalloprotease 2 = Metalloprotease 2 (UniProt P08253)
Sequence of UniProt P08253 (P08253 110-660): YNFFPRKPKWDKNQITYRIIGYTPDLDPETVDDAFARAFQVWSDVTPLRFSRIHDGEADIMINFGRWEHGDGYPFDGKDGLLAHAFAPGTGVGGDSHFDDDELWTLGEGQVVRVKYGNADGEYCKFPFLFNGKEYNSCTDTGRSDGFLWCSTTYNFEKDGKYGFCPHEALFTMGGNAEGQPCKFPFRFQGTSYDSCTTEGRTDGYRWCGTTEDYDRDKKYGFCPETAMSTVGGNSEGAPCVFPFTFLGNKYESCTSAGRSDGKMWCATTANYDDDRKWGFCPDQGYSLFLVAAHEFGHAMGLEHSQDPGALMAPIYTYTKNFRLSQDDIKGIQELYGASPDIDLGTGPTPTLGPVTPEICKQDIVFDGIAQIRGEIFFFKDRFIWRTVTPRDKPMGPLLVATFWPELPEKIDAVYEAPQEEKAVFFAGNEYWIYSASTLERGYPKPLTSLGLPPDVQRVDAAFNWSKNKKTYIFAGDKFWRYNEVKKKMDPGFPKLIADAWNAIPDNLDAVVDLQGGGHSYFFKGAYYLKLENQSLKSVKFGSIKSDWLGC

Trypsin (Bos taurus) [31] = molecular target: Trypsin (Bos taurus) (UniProt P00760); remark: listed apart in the source
Trypsin (Bos taurus) [32] = molecular target: Trypsin (Bos taurus) (UniProt P00760); remark: listed apart in the source
Plasmin (Homo sapiens) [33] = molecular target: Plasmin (Homo sapiens) (UniProt P00747); remark: listed apart in the source
[34] = molecular target: Chymotrypsin (Bos taurus) (UniProt P00766); remark: listed apart in the source
Plasmin (Homo sapiens) [35] = molecular target: Plasmin (Homo sapiens) (UniProt P00747); remark: listed apart in the source
Kv1.2 = Kv1.2 (UniProt P16389)
Sequence of UniProt P16389 (P16389 whole entry): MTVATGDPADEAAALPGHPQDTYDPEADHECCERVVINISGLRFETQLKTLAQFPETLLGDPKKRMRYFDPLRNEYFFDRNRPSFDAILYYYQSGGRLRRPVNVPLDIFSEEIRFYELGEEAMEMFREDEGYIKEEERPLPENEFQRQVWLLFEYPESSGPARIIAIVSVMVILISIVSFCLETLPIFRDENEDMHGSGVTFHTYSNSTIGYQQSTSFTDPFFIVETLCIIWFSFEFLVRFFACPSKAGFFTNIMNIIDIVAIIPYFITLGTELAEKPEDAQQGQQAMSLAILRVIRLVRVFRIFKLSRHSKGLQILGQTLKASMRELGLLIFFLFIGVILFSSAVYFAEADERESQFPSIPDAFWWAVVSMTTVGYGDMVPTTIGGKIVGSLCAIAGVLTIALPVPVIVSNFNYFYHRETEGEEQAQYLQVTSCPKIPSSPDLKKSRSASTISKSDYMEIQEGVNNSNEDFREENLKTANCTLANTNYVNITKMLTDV

Kv1.6 = Kv1.6 (UniProt P17658)
Sequence of UniProt P17658 (P17658 whole entry): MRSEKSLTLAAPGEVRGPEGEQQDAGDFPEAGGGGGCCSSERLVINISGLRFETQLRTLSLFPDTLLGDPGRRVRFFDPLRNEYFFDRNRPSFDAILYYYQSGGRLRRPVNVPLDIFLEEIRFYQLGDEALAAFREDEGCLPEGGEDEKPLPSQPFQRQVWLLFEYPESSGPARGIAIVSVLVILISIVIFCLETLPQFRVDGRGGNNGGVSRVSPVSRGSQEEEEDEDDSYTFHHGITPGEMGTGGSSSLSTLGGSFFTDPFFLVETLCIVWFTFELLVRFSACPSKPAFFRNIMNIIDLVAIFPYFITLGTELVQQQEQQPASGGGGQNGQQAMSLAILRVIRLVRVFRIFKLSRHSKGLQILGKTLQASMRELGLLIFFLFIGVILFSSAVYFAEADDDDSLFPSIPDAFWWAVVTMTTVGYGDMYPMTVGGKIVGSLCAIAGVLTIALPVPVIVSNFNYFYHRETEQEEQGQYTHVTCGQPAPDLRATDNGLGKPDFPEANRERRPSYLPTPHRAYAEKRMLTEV

Kv1.1 = Kv1.1 (UniProt Q09470)
Sequence of UniProt Q09470 (Q09470 whole entry): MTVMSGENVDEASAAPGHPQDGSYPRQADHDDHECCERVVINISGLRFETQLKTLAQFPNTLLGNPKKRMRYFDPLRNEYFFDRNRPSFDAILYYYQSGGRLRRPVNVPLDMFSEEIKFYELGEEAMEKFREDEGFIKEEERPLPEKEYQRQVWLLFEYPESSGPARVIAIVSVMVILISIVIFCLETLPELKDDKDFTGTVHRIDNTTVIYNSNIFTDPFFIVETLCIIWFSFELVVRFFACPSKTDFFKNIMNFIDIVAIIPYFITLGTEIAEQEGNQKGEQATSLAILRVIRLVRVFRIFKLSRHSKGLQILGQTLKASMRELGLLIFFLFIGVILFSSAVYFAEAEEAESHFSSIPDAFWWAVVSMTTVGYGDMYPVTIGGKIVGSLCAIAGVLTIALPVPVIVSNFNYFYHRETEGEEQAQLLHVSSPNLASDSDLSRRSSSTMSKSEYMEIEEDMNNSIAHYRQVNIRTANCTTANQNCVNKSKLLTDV

Trypsin (Bos taurus) [36] = molecular target: Trypsin (Bos taurus) (UniProt P00760); remark: listed apart in the source
Trypsin (Bos taurus) [37] = molecular target: Trypsin (Bos taurus) (UniProt P00760); remark: listed apart in the source
[38] = molecular target: Chymotrypsin (Bos taurus) (UniProt P00766); remark: listed apart in the source
Trypsin (Bos taurus) [39] = molecular target: Trypsin (Bos taurus) (UniProt P00760); remark: listed apart in the source
Trypsin (Bos taurus) [40] = molecular target: Trypsin (Bos taurus) (UniProt P00760); remark: listed apart in the source
Trypsin (Bos taurus) [41] = molecular target: Trypsin (Bos taurus) (UniProt P00760); remark: listed apart in the source
Trypsin (Bos taurus) [42] = molecular target: Trypsin (Bos taurus) (UniProt P00760); remark: listed apart in the source
Trypsin (Bos taurus) [43] = molecular target: Trypsin (Bos taurus) (UniProt P00760); remark: listed apart in the source
Trypsin (Bos taurus) [44] = molecular target: Trypsin (Bos taurus) (UniProt P00760); remark: listed apart in the source

Sequence of UniProt P00760 (P00760 149-246): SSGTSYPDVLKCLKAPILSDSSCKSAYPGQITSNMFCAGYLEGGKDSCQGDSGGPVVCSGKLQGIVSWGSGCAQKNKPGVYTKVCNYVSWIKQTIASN

Substance: APHC1 (from UniProt B2G331)
- Kd (Trypsin (Bos taurus) [1]): 1000 nM
- Kd [2]: 5000 nM

- Kd (Trypsin (Bos taurus) [3]): 1.92 nM
Substance: Albumin-1 (from UniProt Q3T478)

Substance: AvKTI (from UniProt Q8T3S7)
- Ki [4]: 169 nM
- Ki (Trypsin (Bos taurus) [5]): 7.34 nM
- Ki (Plasmin (Homo sapiens) [6]): 4.89 nM
- Ki [7]: 37.8 nM

Substance: BF9 (from UniProt P25660)
- Kd [8]: 58 nM

Substance: Bi-KTI (from UniProt G3LH89)
- Ki (Plasmin (Homo sapiens) [9]): 3.6 nM

Substance: Bt-KTI (from UniProt D8KY58)
- Ki (Plasmin (Homo sapiens) [10]): 2.01 nM

Substance: Bungaruskunin (from UniProt B2KTG1)
- Ki [11]: 6100 nM

Substance: CBPTI-1 (from UniProt A8Y7N4)
- Ki (Trypsin (Bos taurus) [12]): 407 nM

Substance: CBPTI-2 (from UniProt A8Y7N5)
- Ki (Trypsin (Bos taurus) [13]): 666 nM

- Ki [14]: 2.55 nM
Substance: CBPTI-3 (from UniProt A8Y7N6)

- Ki (Trypsin (Bos taurus) [15]): 5100 nM
- Ki [16]: 4.3 nM
Substance: Chymotrypsin inhibitor (from UniProt P00992)

Substance: Dendrotoxin E (from UniProt P00984)
- Kd (Trypsin (Bos taurus) [17]): 1 nM
- Kd [18]: 100 nM

Substance: Elastase inhibitor (from UniProt P16895)
- Kd [19]: 1 nM

Substance: Elastase inhibitor AEI (from UniProt P16895)
- Ki [20]: 1000 nM

Substance: Equistatin (from UniProt P81439)
- Ki (Cathepsin B): 1.4 nM
- Ki (Cathepsin L): 0.051 nM
- Ki (Papain (Carica papaya) [21]): 0.57 nM

- Ki (Papain (Carica papaya) [22]): 0.6 nM
Substance: Equistatin N-terminal domain (from UniProt P81439)

- Ki (Cathepsin D): 0.3 nM
Substance: Equistatin second domain (from UniProt P81439)

Substance: Jn-IV (from UniProt P16344)
- Kd (Trypsin (Bos taurus) [23]): 9.6 nM

Substance: Kalicludin-1 (AsKC1) (from UniProt Q9TWG0)
- Kd (Trypsin (Bos taurus) [24]): < 30 nM

Substance: Kalicludin-2 (AsKC2) (from UniProt Q9TWF9)
- Kd (Trypsin (Bos taurus) [25]): < 30 nM

Substance: Kalicludin-3 (AsKC3) (from UniProt Q9TWF8)
- Kd (Trypsin (Bos taurus) [26]): < 30 nM

Substance: NACI (from UniProt Q5ZPJ7)
- Ki [27]: 25 nM

- Ki (Trypsin (Bos taurus) [28]): 170 nM
- Ki [29]: 170 nM
Substance: OH-TCI (native) (from UniProt B6RLX2)

- Ki (Trypsin (Bos taurus) [30]): 55.6 nM
Substance: PILP-1 (from UniProt B4ESA2)

Substance: Pr-mulgin 1 (from UniProt E7FL11)
- Ki (Metalloprotease 2): 60 nM

Substance: SA5 II (from UniProt P10280)
- Kd (Trypsin (Bos taurus) [31]): 0.3 nM

Substance: ShPI-1 (from UniProt P31713)
- Kd (Trypsin (Bos taurus) [32]): 0.11 nM
- Kd (Plasmin (Homo sapiens) [33]): 2.7 nM
- Kd [34]: 2.3 nM

Substance: Textilinin-2 (from UniProt Q90WA0)
- Ki (Plasmin (Homo sapiens) [35]): 2.2 nM

Substance: Toxin I (from UniProt P00979)
- Kd (Kv1.2): < 20 nM
- Kd (Kv1.6): < 20 nM
- Kd (Kv1.1): < 20 nM

- Ki (Trypsin (Bos taurus) [36]): 0.0035 nM
Substance: Trypsin inhibitor (from UniProt P20229)

- Ki (Trypsin (Bos taurus) [37]): 0.34 nM
- Ki [38]: 270 nM
Substance: Trypsin inhibitor I (from UniProt P00991)

Substance: rBmKTT-1 (from UniProt P0DJ49)
- Kd (Trypsin (Bos taurus) [39]): 136 nM

Substance: rBmKTT-2 (from UniProt P0DJ50)
- Kd (Trypsin (Bos taurus) [40]): 420 nM

Substance: rHg1 (from UniProt P0C8W3)
- Kd (Trypsin (Bos taurus) [41]): 107 nM

Substance: rLmKTT-1a (from UniProt P0DJ46)
- Kd (Trypsin (Bos taurus) [42]): 140 nM

Substance: rLmKTT-1b (SdPI) (from UniProt P0DJ45)
- Kd (Trypsin (Bos taurus) [43]): 160 nM

Substance: rLmKTT-1c (from UniProt P0DJ48)
- Kd (Trypsin (Bos taurus) [44]): 124 nM
